# In PMC11944577:
# Biological target: T1, MgrA (Staphylococcus aureus XN108) (UniProt P0C1S0)
# T1 sequence: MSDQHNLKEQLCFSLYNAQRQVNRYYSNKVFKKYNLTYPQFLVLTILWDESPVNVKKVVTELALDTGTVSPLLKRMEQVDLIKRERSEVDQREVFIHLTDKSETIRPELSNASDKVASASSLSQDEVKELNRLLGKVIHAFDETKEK
# Test: competition
sequence,measurement,value
TTTACGTGCAGCACGTTCACGTACCTCAAAGTTACCGAAACCAATTAATTGTACTTTTTCACCTTTAGCAAGTGAGTTTTGGATTGATTCGAATACAGCATCTACTGCTGAACCAGCTTCTTTTT (double strand) [hu fragment (competitor)],binding,no binding
